Measured values published in the supplement of paper PMC10567573.
± gives the standard deviation.

Assay: protein stability index of a GFP-peptide fusion (GPS, HEK-293T) (PSI 1-6); higher = more stable
Conditions: c terminus: a fixed tail appended
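Note: 24-mer peptide tiles fused after GFP, lentivirally expressed, FACS-sorted into six equal bins by GFP/DsRed ratio, decoded by Illumina sequencing, PSI is the read-weighted mean bin number.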

**Q.** Which protein stability index (treatment: DMSO) does the source give for TIAAIDGLALGGGLELALACDIRV [AUH] here?
**A.** The protein stability index was 2.39 ± 1.2.

**Q.** What about the protein stability index (treatment: MLN4924 1 uM, 8 h) of the same sequence?
**A.** The protein stability index was 2.33 ± 0.59.

**Q.** For GGTLFSLEEGSSFWNQGLTWKVLF [CLCN6], which protein stability index (treatment: DMSO) is on record?
**A.** Its protein stability index is 2.7 ± 0.46.

**Q.** What about the protein stability index (treatment: MLN4924 1 uM, 8 h) of the same sequence?
**A.** Its protein stability index is 2.6 ± 0.81.

**Q.** Which results are given for QGQYETIERLRSLSPKIMQEAFLV [TBC1D10A]?
**A.** protein stability index (treatment: DMSO): 2.32 ± 0.21; protein stability index (treatment: MLN4924 1 uM, 8 h): 2.22 ± 0.27

**Q.** Which protein stability index (treatment: DMSO) does the source give for KTTQEAEKLLERQGQAKTPDSMFL [CDK11A] here?
**A.** Its protein stability index is 4.68 ± 0.28.

**Q.** What about the protein stability index (treatment: MLN4924 1 uM, 8 h) of the same sequence?
**A.** Its protein stability index is 4.73 ± 0.2.

**Q.** Which protein stability index (treatment: DMSO) does the source give for YKNIKRPPGDIMFLLVQRFGELMR [USP39] here?
**A.** The protein stability index was 2.29 ± 0.16.

**Q.** What about the protein stability index (treatment: MLN4924 1 uM, 8 h) of the same sequence?
**A.** The protein stability index was 2.14 ± 0.17.

**Q.** With LRRGHPAGGEENMTETDAFYKREM [CASP6] as the sequence, how does the protein stability index (treatment: DMSO) read?
**A.** Its protein stability index is 4.9 ± 0.2.

**Q.** What about the protein stability index (treatment: MLN4924 1 uM, 8 h) of the same sequence?
**A.** The protein stability index was 4.43 ± 0.84.
